The target of experiment [1] is T1, recombinant MDMX (amino acid residues 1-185) GST fusion protein (UniProt O15151 1-185).
T1 construct: range 1-185; Expressed in E. coli BL21(DE3) from pGEX-4-T-1 and eluted as a GST fusion; GST is placed N-terminally by the usual layout of the vector; also called MDMX-GST; not shown: glutathione S-transferase tag encoded by pGEX-4-T-1
T1 sequence (looked up): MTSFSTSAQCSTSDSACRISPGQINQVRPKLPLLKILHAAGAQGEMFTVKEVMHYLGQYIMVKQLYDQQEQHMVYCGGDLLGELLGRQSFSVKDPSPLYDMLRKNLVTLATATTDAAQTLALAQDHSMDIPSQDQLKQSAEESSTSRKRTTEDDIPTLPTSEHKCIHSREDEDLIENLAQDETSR
The experiment is described as follows: fluorescence polarization assay with recombinant GST-MDMX (1-185). The method, then: (§1) Kd's and Kᵢ's were calculated by fitting the data to a single-site binding mode with variable slope (Y=Bottom+(Top−Bottom)/(1+10̂((LogEC50-X)*HillSlope))) using […] PRISM software.

For experiment [2], the target named is T2, recombinant MDM2 (amino acid residues 1-188) GST fusion protein (UniProt Q00987 1-188).
T2 construct: range 1-188; Expressed in E. coli BL21(DE3) from pGEX-4-T-1 and eluted as a GST fusion; GST is placed N-terminally by the usual layout of the vector; not shown: glutathione S-transferase tag encoded by pGEX-4-T-1
The experiment is described as follows: fluorescence polarization assay with recombinant GST-MDM2 (1-188). The method, then:
as §1

T2 sequence (Q00987 1-188): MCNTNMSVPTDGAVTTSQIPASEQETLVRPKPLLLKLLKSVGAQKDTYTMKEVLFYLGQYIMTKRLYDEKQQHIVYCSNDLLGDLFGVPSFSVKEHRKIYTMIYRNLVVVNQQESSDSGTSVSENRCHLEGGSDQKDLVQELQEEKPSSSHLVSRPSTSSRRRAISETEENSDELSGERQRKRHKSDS

As for H-GSGSSQETASDLAKLAPEN-OH, the binding result in experiment [1] and in experiment [2] was “no binding” in each case.

Values taken from US20120115880A1 (ST JUDE CHILDREN S RESEARCH HOSPITAL, published 2012).
